Data from patent US20170023548.

B1: recombinant human caspase-3 (Biovision) (protein)
chain: SGISLDNSYKMDYPEMGLCIIINNKNFHKSTGMTSRSGTDVDAANLRETFRNLKYEVRNKNDLTREEIVELMRDVSKEDHSKRSSFVCVLLSHGEEGIIFGTNGPVDLKKITNFFRGDRCRSLTGKPKLFIIQACRGTELDCGIETDSGVDDDMACHKIPVEADFLYAYSTAPGYYSWRNSKDGSWFIQSLCAMLKQYADKLEFMHILTRVNRKVATEFESFSFDATFHAKKQIPCIVSMLTKELYFYH
B2: recombinant human caspase-7 (Biovision) (protein)
chain: AKPDRSSFVPSLFSKKKKNVTMRSIKTTRDRVPTYQYNMNFEKLGKCIIINNKNFDKVTGMGVRNGTDKDAEALFKCFRSLGFDVIVYNDCSCAKMQDLLKKASEEDHTNAACFACILLSHGEENVIYGKDGVTPIKDLTAHFRGDRCKTLLEKPKLFFIQACRGTELDDGIQADSGPINDTDANPRYKIPVEADFLFAYSTVPGYYSWRSPGRGSWFVQALCSILEEHGKDLEIMQILTRVNDRVARHFESQSDDPHFHEKKQIPCVVSMLTKELYFSQ
B3: recombinant human caspase-6 (Biovision) (protein)
chain: AFYKREMFDPAEKYKMDHRRRGIALIFNHERFFWHLTLPERRGTCADRDNLTRRFSDLGFEVKCFNDLKAEELLLKIHEVSTVSHADADCFVCVFLSHGEGNHIYAYDAKIEIQTLTGLFKGDKCHSLVGKPKIFIIQACRGNQHDVPVIPLDVVDNQTEKLDTNITEVDAASVYTLPAGADFLMCYSVAEGYYSHRETVNGSWYIQDLCEMLGKYGSSLEFTELLTLVNRKVSQRRVDFCKDPSAIGKKQVPCFASMLTKKLHFFPKSN

Target: T1, hATP11C-GFP (human ATP11C tagged with GFP at the C-terminus), Q8NB49
T1 chain: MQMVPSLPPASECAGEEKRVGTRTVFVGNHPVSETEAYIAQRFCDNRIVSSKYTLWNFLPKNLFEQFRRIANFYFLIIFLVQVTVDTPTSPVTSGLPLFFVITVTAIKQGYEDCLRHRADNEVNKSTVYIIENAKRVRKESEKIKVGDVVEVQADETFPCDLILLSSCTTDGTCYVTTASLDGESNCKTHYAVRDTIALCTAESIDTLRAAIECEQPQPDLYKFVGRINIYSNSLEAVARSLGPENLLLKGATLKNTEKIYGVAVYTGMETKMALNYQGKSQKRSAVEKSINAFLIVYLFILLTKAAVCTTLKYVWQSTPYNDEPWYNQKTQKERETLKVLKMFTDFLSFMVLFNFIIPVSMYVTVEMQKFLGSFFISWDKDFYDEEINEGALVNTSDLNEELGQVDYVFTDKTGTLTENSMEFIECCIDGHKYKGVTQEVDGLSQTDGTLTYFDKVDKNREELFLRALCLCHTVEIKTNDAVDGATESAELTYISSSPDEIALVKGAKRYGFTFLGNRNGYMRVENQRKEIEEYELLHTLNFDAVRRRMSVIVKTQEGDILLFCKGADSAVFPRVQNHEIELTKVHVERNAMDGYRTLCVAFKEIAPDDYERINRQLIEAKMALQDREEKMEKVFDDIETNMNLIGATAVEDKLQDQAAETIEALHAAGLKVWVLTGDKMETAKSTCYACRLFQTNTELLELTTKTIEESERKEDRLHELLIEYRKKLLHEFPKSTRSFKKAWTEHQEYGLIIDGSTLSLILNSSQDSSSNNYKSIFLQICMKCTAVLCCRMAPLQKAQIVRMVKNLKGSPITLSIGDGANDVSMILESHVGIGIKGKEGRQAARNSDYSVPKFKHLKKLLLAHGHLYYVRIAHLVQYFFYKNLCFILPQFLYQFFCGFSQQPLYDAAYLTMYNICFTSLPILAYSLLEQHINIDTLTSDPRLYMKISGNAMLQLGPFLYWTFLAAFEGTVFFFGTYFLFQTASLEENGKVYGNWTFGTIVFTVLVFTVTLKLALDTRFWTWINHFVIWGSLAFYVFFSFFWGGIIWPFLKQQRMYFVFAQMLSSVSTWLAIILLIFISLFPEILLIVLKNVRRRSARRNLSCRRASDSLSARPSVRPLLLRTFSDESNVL

Protein	cleavage of hATP11C-GFP in solubilized membrane fraction, Western blotting with anti-GFP
B1	hATP11C was cleaved by caspase-3, -6 and -7
B2	hATP11C was cleaved by caspase-3, -6 and -7
B3	hATP11C was cleaved by caspase-3, -6 and -7
